Test results as given in the nanobody polyreactivity screen of Harvey et al. (2022).

Assay: yeast display, Sf9 membrane polyspecificity reagent, FACS + sequencing; frameworks hold sequencing errors
Summary of the method: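 Nanobodies from a synthetic yeast display library (Saccharomyces cerevisiae BJ5465), induced 36–48 hours with galactose, were stained 1 hour at 4 °C with 10% biotinylated, detergent-solubilized Sf9 membrane reagent, enriched on streptavidin microbeads, then FACS-sorted. Anti-HA (expression) and streptavidin (reagent binding) fluorescence set low and high (top ~1%) gates. Polyreactivity labels come from the gate of origin. Genes were colony-PCR amplified, MiSeq 2 × 250 sequenced and filtered by CDR length.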

Row | Sequence | polyreactivity (PSR sort gate)
1 | QVQLVESGGGLVQAGGSLRLSCAASGGTFRVYAMGWYRQAPGKERELFAAISSGGSTNYADSVKGRFTISRDNAKNTVYLQMNSLKPEDTAVYYCNAKYRYRFARSPIYYYWGQGTQVTVSS | high polyreactivity
2 | QVQLVESGGGLVQAGGSLRLSCAASGGTFRVYAMGWYRQAPGKERELVAAITGRGGSTYYADSVKGRFTISLDNAKNTVDLQMNSLKPEDTAVYYCAKDPVTTYYKYDYWGQGTQVTVSS | low polyreactivity
3 | QVQLVESGGGLVQAGGSLRLSCAASGGTFRYNAMGWYRQAPGKERELVAAIRWSGGRTYYADSVKGRFTISRDNAKNTVFLQINSLKPEDTAVYYCAALYRGYAVAASYYLWGLGTQVTVSS | high polyreactivity
4 | QVQLVESGGGLVQAGGSLRLSCAASGGTFRYYAMAWYRQAPGKERELVARIRYNGGSTYYADSVKGRFTISRDNAQYTVYLQMNSLKPEDTAVYYCAGRRTGGMGYWGQGTQVTVSS | high polyreactivity
5 | QVQLVESGGGLVQAGGSLRLSCAASGGTFRYYAMGWYRQAPGKERELVATINWSGGSTYADSVKGRFTISRDNAKNTVYLQMNSLKPEDTAVYYCNAGWWIPVYYWDEWYIYNYWGQGTQVTVSS | high polyreactivity
6 | QVQLVESGGGLVQAGGSLRLSCAASGGTFSKNAMGWYRQAPGKEREFVAAISSTGGDTTYYADSVKGRFTISRDNAKNTVYLQMNSLKPEDTAVYYCNADYIFWPWYDYWGQGTQVTVSS | low polyreactivity
7 | QVQLVESGGGLVQAGGSLRLSCAASGGTFSKYAMGWYRQAPGKEREFVAAITVSGGGTYYADSVKGRFTISRDNAKNPVYLQMNSLKPEDTAVYYCAADLAWTASDYWGHGTQVTVSS | low polyreactivity
8 | QVQLVESGGGLVQAGGSLRLSCAASGGTFSKYAMGWYRQAPGKEREFVAAITVSGGGTYYADSVKGRFTISRDNAKNTVYLQMNSLKPEDTAVYYCAADLGWTASDYWGQGTQVTVSS | low polyreactivity
9 | QVQLVESGGGLVQAGGSLRLSCAASGGTFSPYDMGWYRQAPGKERELFASITGSGGSTYYADSVKGRFTISRDNAKNTVYLQMNSLKPVDTAVYDCATQPLTWSSYRWDWRAQFDHWGQGTQVTVSS | low polyreactivity
10 | QVQLVESGGGLVQAGGSLRLSCAASGGTFSRYVMGWYRQAPGKERELVAAITRSGSTNYADSVKGRFTISRDNAKNTVYLQMNSLKPEDTAVYYCATDKRGRIGGTFDYWGQGTQVTVSS | low polyreactivity
11 | QVQLVESGGGLVQAGGSLRLSCAASGGTFSTYTMGCYRQAPGKERELVAGISGRGGSTRYADSVKGRFTISRDNAKNTVYLQMNSLKPEDTAVYYCNARKRSYWGIVFVGLYDYWGQGTQVTVSS | high polyreactivity
12 | QVQLVESGGGLVQAGGSLRLSCAASGGTFSYYAMGWYRQAPGKERELVAAISKRGGSTYYADSVKGRFTISRDNAKNTVYLQMNSLKPEDTAVYYCARGYSWSVGYPRVQDMDYWGQGTQVTVSS | high polyreactivity
13 | QVQLVESGGGLVQAGGSLRLSCAASGGTFTPYDMGWYRQAPGKERELVASITGSGGSTYYADSVKGRFTISRGNAKNTVYLQMNSLKPEDTAVYYCAAQGYWTYWPYLLRLYDYWGQGTQVTVSS | low polyreactivity
14 | QVQLVESGGGLVQAGGSLRLSCAASGGTFTSNAMGWYRQAPGKERELVAAISSRGGTYYADSVKGRFTISRDNAKNTVYVQMNSLKPEDTAVYYCAARGYLYSWNVSHTYDYWGQGTQVTVSS | high polyreactivity
15 | QVQLVESGGGLVQAGGSLRLSCAASGGTFVGYAMGWYRQAPGKEREFVAAISGSGGSTYYADSVKGRFTISRDNAKNTVYLQMNSLKPEDTAVYYCAARAVSRRFDYWGQGTQVTVSS | high polyreactivity
16 | QVQLVESGGGLVQAGGSLRLSCAASGGTFVGYAMGWYRQAPGKERELVAAINSSGGRTYYADSVKGRFTISRDNAKNTVYLQMNSLKPEDTAVYYCAKPRTYHKDKYDYWGQGTQVTVSS | high polyreactivity
17 | QVQLVESGGGLVQAGGSLRLSCAASGGTFVHNAMGWYRQAPGKERELVAAISWSGGSTYYADSVKGRFTISRDNAKNTVYLQMNSLKPEDTAVYYCAADLPDYKDIFDSWGQGTQVTVSS | low polyreactivity
